Laboratory results: patent US20240383984A1 (Genentech, published 2024)

T1: human FcRH5 protein fragment (soluble) (human, UniProt Q96RD9 16-851)
T1 construct: whole entry named; also called soluble human FcRH5; Human FcRH5 (BIACORE analyte)
T1 sequence: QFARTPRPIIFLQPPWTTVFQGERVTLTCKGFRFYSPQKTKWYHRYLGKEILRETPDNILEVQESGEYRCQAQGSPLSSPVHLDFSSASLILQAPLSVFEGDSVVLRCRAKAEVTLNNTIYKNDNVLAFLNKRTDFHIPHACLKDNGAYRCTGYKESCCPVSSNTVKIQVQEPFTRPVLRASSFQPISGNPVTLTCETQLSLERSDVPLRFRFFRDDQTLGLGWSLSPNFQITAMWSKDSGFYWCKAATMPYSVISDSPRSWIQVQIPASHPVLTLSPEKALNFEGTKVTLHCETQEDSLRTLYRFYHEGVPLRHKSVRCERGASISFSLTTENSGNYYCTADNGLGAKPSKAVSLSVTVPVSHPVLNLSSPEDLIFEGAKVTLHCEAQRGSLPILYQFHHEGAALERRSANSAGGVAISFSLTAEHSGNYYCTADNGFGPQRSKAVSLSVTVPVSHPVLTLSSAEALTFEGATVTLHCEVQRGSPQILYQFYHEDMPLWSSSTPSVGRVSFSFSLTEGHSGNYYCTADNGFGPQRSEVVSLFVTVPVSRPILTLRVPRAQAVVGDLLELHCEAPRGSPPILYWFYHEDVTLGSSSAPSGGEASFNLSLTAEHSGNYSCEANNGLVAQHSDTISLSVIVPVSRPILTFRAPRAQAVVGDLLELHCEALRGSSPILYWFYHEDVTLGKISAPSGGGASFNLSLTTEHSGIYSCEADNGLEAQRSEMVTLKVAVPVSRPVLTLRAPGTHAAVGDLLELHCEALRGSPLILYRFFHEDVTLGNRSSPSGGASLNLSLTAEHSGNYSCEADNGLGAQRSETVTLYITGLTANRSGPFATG


Experiments:
[1] = biological target: T1, human FcRH5 protein fragment (soluble); assay: BIACORE, human IgG1, soluble human FcRH5
[2] = biological target: T1, human FcRH5 protein fragment (soluble); assay: SPR, hIgG capture, screening
Description: (§1) Briefly, a human IgG capture surface was generated on a Series S CM5 chip using amine coupling and the human IgG capture kit (GE Life Sciences, Piscataway, NJ). Test antibodies were then captured on flow cells 2, 3, or 4, with flow cell 1 used as a reference. An FcRH5 protein fragment was used as the analyte, with a flow rate of […]. Between injections the capture surface was regenerated by a 30-second injection of 3M magnesium chloride or 10 mM glycine, pH 1.5. Interactions were assessed at 25° C. in 10 mM HEPES pH7.4, 150 mM NaCl, and 0.05% Tween 20 (HBSP). Reference data from the reference flow cell and from injection of buffer alone were subtracted prior to kinetic analysis. Kinetic information was calculated by fitting data to a 1:1 binding model. Reference subtraction and data fitting were performed using BIAevaluation software (GE Life Sciences, Piscataway, NJ).
(§2) For affinity screening of HVR-H2 Trp52 and Met64 variants (Table 7), antibodies were expressed by transient transfection of Expi293 cells and purified using tip columns that were custom packed with affinity resin MabSelect SuRe (Glygen Corp., Columbia, MD & GE Life Sciences, Piscataway, NJ). […] Binding of FcRH5 protein fragment to captured antibodies was monitored at 100 nM and 500 nM. Association and dissociation were monitored at a flow rate of 40 μl/min, for 180 s and 300 s, respectively.

[3] = biological target: T1, human FcRH5 protein fragment (soluble); assay: SPR (BIACORE), IgG captured via anti-human IgG, FcRH5 protein fragment as analyte (100 and 500 nM)
Description: as §1, §2

| Binder | Fold improvement over hu1G7.v1 [1] [fold] | Kd [1] [nM] | Kd [2] [nM] | Kd [3] [nM] |
| --- | --- | --- | --- | --- |
| 1G7.v1C (antibody, human IgG1, V domains shown, human IgG1 with the light chain of hu1G7.v1; also called C (hu1G7.v1 heavy chain S28P)) VH: EVQLVESGPGLVKPSETLSLTCTVSGFPLTRFGVHWVRQPPGKGLEWLGVIWRGGSTDYNAAFMSRLTISKDNSKNQVSLKLSSVTAADTAVYYCSNHYYGSSDYALDNWGQGTLVTVSS VL: DIQMTQSPSSLSASVGDRVTITCKASQDVSNIVVWFQQKPGKSPKLLIYSASYRYTGVPSRFSGSGSGTDFTLTISSLQPEDFATYYCQQHYSSPYTFGQGTKVEIK | 1.1 | 13.3 | – | – |
| hu1G7.v1 heavy chain W52L with light chain of hu1G7.v1.4 (antibody, V domains shown, human IgG) VH: EVQLVESGPGLVKPSETLSLTCTVSGFSLTRFGVHWVRQPPGKGLEWLGVILRGGSTDYNAAFMSRLTISKDNSKNQVSLKLSSVTAADTAVYYCSNHYYGSSDYALDNWGQGTLVTVSS VL: DIQMTQSPSSLSASVGDRVTITCKASQDVRNLVVWFQQKPGKAPKLLIYSGSYRYSGVPSRFSGSGSGTDFTLTISSLQPEDFATYYCQQHYSPPYTFGQGTKVEIK | – | – | 92 | 92 |
| hu1G7.v1 heavy chain W52Y with light chain of hu1G7.v1.3 (antibody, V domains shown, human IgG) VH: EVQLVESGPGLVKPSETLSLTCTVSGFSLTRFGVHWVRQPPGKGLEWLGVIYRGGSTDYNAAFMSRLTISKDNSKNQVSLKLSSVTAADTAVYYCSNHYYGSSDYALDNWGQGTLVTVSS VL: DIQMTQSPSSLSASVGDRVTITCKASQDVRNIVVWFQQKPGKAPKLLIYSGSYRYSGVPSRFSGSGSGTDFTLTISSLQPEDFATYYCQQQYSPPYTFGQGTKVEIK | – | – | 640 | 641 |
| 1G7.v1D (antibody, human IgG1, V domains shown, human IgG1 with the light chain of hu1G7.v1; also called D (hu1G7.v1 heavy chain L29T)) VH: EVQLVESGPGLVKPSETLSLTCTVSGFSTTRFGVHWVRQPPGKGLEWLGVIWRGGSTDYNAAFMSRLTISKDNSKNQVSLKLSSVTAADTAVYYCSNHYYGSSDYALDNWGQGTLVTVSS VL: DIQMTQSPSSLSASVGDRVTITCKASQDVSNIVVWFQQKPGKSPKLLIYSASYRYTGVPSRFSGSGSGTDFTLTISSLQPEDFATYYCQQHYSSPYTFGQGTKVEIK | 2.2 | 6.7 | – | – |
| hu1G7.v1 heavy chain W52L with light chain of hu1G7.v1.6 (antibody, V domains shown, human IgG) VH: EVQLVESGPGLVKPSETLSLTCTVSGFSLTRFGVHWVRQPPGKGLEWLGVILRGGSTDYNAAFMSRLTISKDNSKNQVSLKLSSVTAADTAVYYCSNHYYGSSDYALDNWGQGTLVTVSS VL: DIQMTQSPSSLSASVGDRVTITCKASQDVSNIVVWFQQKPGKAPKLLIYSGYYRYSGVPSRFSGSGSGTDFTLTISSLQPEDFATYYCQQQYQPPYTFGQGTKVEIK | – | – | 250 | 250 |
| hu1G7.v1 heavy chain W52Y with light chain of hu1G7.v1.4 (antibody, V domains shown, human IgG) VH: EVQLVESGPGLVKPSETLSLTCTVSGFSLTRFGVHWVRQPPGKGLEWLGVIYRGGSTDYNAAFMSRLTISKDNSKNQVSLKLSSVTAADTAVYYCSNHYYGSSDYALDNWGQGTLVTVSS VL: DIQMTQSPSSLSASVGDRVTITCKASQDVRNLVVWFQQKPGKAPKLLIYSGSYRYSGVPSRFSGSGSGTDFTLTISSLQPEDFATYYCQQHYSPPYTFGQGTKVEIK | – | – | 130 | 131 |
| hu1G7.v1 heavy chain W52L with light chain of hu1G7.v1 (antibody, V domains shown, human IgG) VH: EVQLVESGPGLVKPSETLSLTCTVSGFSLTRFGVHWVRQPPGKGLEWLGVILRGGSTDYNAAFMSRLTISKDNSKNQVSLKLSSVTAADTAVYYCSNHYYGSSDYALDNWGQGTLVTVSS VL: DIQMTQSPSSLSASVGDRVTITCKASQDVSNIVVWFQQKPGKSPKLLIYSASYRYTGVPSRFSGSGSGTDFTLTISSLQPEDFATYYCQQHYSSPYTFGQGTKVEIK | – | – | 100 | 103 |
| hu1G7.v87 (antibody, V domains shown, Human IgG) VH: EVQLVESGPGLVKPSETLSLTCTVSGFSLTRFGVHWVRQPPGKGLEWLGVIWRGGSTDYNAAFVSRLTISKDNSKNQVSLKLSSVTAADTAVYYCSNHYYGSSDYALDNWGQGTLVTVSS VL: DIQMTQSPSSLSASVGDRVTITCKASQDVSNIVVWFQQKPGKSPKLLIYSASYRYTGVPSRFSGSGSGTDFTLTISSLQPEDFATYYCQQHYSSPYTFGQGTKVEIK | – | – | 27 | 27.4 |
| hu1G7.v1 heavy chain W52Y with light chain of hu1G7.v1.7 (antibody, V domains shown, human IgG) VH: EVQLVESGPGLVKPSETLSLTCTVSGFSLTRFGVHWVRQPPGKGLEWLGVIYRGGSTDYNAAFMSRLTISKDNSKNQVSLKLSSVTAADTAVYYCSNHYYGSSDYALDNWGQGTLVTVSS VL: DIQMTQSPSSLSASVGDRVTITCKASQDVRNLVVWFQQKPGKAPKLLIYSGYYRYTGVPSRFSGSGSGTDFTLTISSLQPEDFATYYCQQHYQPPYTFGQGTKVEIK | – | – | 140 | 136 |

Next, values leading:

| Fold improvement over hu1G7.v1 [1] [fold] | Kd [1] [nM] | Kd [2] [nM] | Kd [3] [nM] | Binder |
| --- | --- | --- | --- | --- |
| – | – | 130 | 125 | hu1G7.v1 heavy chain W52L with light chain of hu1G7.v1.5 (antibody, V domains shown, human IgG) VH: EVQLVESGPGLVKPSETLSLTCTVSGFSLTRFGVHWVRQPPGKGLEWLGVILRGGSTDYNAAFMSRLTISKDNSKNQVSLKLSSVTAADTAVYYCSNHYYGSSDYALDNWGQGTLVTVSS VL: DIQMTQSPSSLSASVGDRVTITCKASQDVSNIVVWFQQKPGKSPKLLIYSGYYRYTGVPSRFSGSGSGTDFTLTISSLQPEDFATYYCQQQFQPPYTFGQGTKVEIK |
| – | – | 240 | 239 | hu1G7.v1 heavy chain W52L with light chain of hu1G7.v1.3 (antibody, V domains shown, human IgG) VH: EVQLVESGPGLVKPSETLSLTCTVSGFSLTRFGVHWVRQPPGKGLEWLGVILRGGSTDYNAAFMSRLTISKDNSKNQVSLKLSSVTAADTAVYYCSNHYYGSSDYALDNWGQGTLVTVSS VL: DIQMTQSPSSLSASVGDRVTITCKASQDVRNIVVWFQQKPGKAPKLLIYSGSYRYSGVPSRFSGSGSGTDFTLTISSLQPEDFATYYCQQQYSPPYTFGQGTKVEIK |
| – | – | 90 | 89.8 | hu1G7.v1 heavy chain W52H with light chain of hu1G7.v1.7 (antibody, V domains shown, human IgG) VH: EVQLVESGPGLVKPSETLSLTCTVSGFSLTRFGVHWVRQPPGKGLEWLGVIHRGGSTDYNAAFMSRLTISKDNSKNQVSLKLSSVTAADTAVYYCSNHYYGSSDYALDNWGQGTLVTVSS VL: DIQMTQSPSSLSASVGDRVTITCKASQDVRNLVVWFQQKPGKAPKLLIYSGYYRYTGVPSRFSGSGSGTDFTLTISSLQPEDFATYYCQQHYQPPYTFGQGTKVEIK |
| – | – | 130 | 129 | hu1G7.v1 heavy chain W52L with light chain of hu1G7.v1.7 (antibody, V domains shown, human IgG) VH: EVQLVESGPGLVKPSETLSLTCTVSGFSLTRFGVHWVRQPPGKGLEWLGVILRGGSTDYNAAFMSRLTISKDNSKNQVSLKLSSVTAADTAVYYCSNHYYGSSDYALDNWGQGTLVTVSS VL: DIQMTQSPSSLSASVGDRVTITCKASQDVRNLVVWFQQKPGKAPKLLIYSGYYRYTGVPSRFSGSGSGTDFTLTISSLQPEDFATYYCQQHYQPPYTFGQGTKVEIK |
| – | – | 150 | 146 | hu1G7.v1 heavy chain W52Y with light chain of hu1G7.v1 (antibody, V domains shown, human IgG) VH: EVQLVESGPGLVKPSETLSLTCTVSGFSLTRFGVHWVRQPPGKGLEWLGVIYRGGSTDYNAAFMSRLTISKDNSKNQVSLKLSSVTAADTAVYYCSNHYYGSSDYALDNWGQGTLVTVSS VL: DIQMTQSPSSLSASVGDRVTITCKASQDVSNIVVWFQQKPGKSPKLLIYSASYRYTGVPSRFSGSGSGTDFTLTISSLQPEDFATYYCQQHYSSPYTFGQGTKVEIK |
| – | – | 530 | 529 | hu1G7.v1 heavy chain W52Y with light chain of hu1G7.v1.6 (antibody, V domains shown, human IgG) VH: EVQLVESGPGLVKPSETLSLTCTVSGFSLTRFGVHWVRQPPGKGLEWLGVIYRGGSTDYNAAFMSRLTISKDNSKNQVSLKLSSVTAADTAVYYCSNHYYGSSDYALDNWGQGTLVTVSS VL: DIQMTQSPSSLSASVGDRVTITCKASQDVSNIVVWFQQKPGKAPKLLIYSGYYRYSGVPSRFSGSGSGTDFTLTISSLQPEDFATYYCQQQYQPPYTFGQGTKVEIK |
| – | – | 180 | 177 | hu1G7.v1 heavy chain W52Y with light chain of hu1G7.v1.5 (antibody, V domains shown, human IgG) VH: EVQLVESGPGLVKPSETLSLTCTVSGFSLTRFGVHWVRQPPGKGLEWLGVIYRGGSTDYNAAFMSRLTISKDNSKNQVSLKLSSVTAADTAVYYCSNHYYGSSDYALDNWGQGTLVTVSS VL: DIQMTQSPSSLSASVGDRVTITCKASQDVSNIVVWFQQKPGKSPKLLIYSGYYRYTGVPSRFSGSGSGTDFTLTISSLQPEDFATYYCQQQFQPPYTFGQGTKVEIK |
